# Measured values as given in article PMC4945038, “Rad51 Nucleoprotein Filament Disassembly Captured Using Fluorescent Plasmodium falciparum SSB as a Reporter for Single-Stranded DNA”.
# B1: (dT)70 (ssDNA)
# DNA: TTTTTTTTTTTTTTTTTTTTTTTTTTTTTTTTTTTTTTTTTTTTTTTTTTTTTTTTTTTTTTTTTTTTTT
# Experiments:
# Pf-SSB-MDCC [1] = molecular target: T1, Pf-SSB-MDCC (Plasmodium falciparum, UniProt Q8I415 77-284); assay: fluorescence titration; 100 mM NaCl; stoichiometric, 1 tetramer per (dT)70; ~4-fold fluorescence increase; Titration and stopped-flow: 20 mM Tris-Cl pH 8, 0.1 mM EDTA, 100 mM NaCl, 1 mM TCEP, 25 C; ITC same with 200 mM NaCl; Rad51 filaments: 25 mM Tris-Cl pH 7.7, 1 mM TCEP, 5% glycerol, 10 mM MgCl2, 50 mM NaCl, 3 mM ATP, ATP regeneration; details: protein: recombinant; tags: MDCC on Cys93; chain copies: 4; single strand
# Pf-SSB-MDCC [2] = molecular target: T1, Pf-SSB-MDCC; assay: ITC; 200 mM NaCl; stoichiometric, 2 (dT)35 per tetramer; dHobs -71.8±0.2 kcal/mol; Titration and stopped-flow: 20 mM Tris-Cl pH 8, 0.1 mM EDTA, 100 mM NaCl, 1 mM TCEP, 25 C; ITC same with 200 mM NaCl; Rad51 filaments: 25 mM Tris-Cl pH 7.7, 1 mM TCEP, 5% glycerol, 10 mM MgCl2, 50 mM NaCl, 3 mM ATP, ATP regeneration; details: protein: recombinant; tags: MDCC on Cys93; chain copies: 4; single strand; 2 copies per tetramer
# Pf-SSB = Pf-SSB (Plasmodium falciparum, UniProt Q8I415 77-284); assay: ITC; 200 mM NaCl; stoichiometric, 2 (dT)35 per tetramer; dHobs -73.1±0.2 kcal/mol; Titration and stopped-flow: 20 mM Tris-Cl pH 8, 0.1 mM EDTA, 100 mM NaCl, 1 mM TCEP, 25 C; ITC same with 200 mM NaCl; Rad51 filaments: 25 mM Tris-Cl pH 7.7, 1 mM TCEP, 5% glycerol, 10 mM MgCl2, 50 mM NaCl, 3 mM ATP, ATP regeneration; details: protein: recombinant; chain copies: 4; single strand; 2 copies per tetramer
Binder,binding result (Pf-SSB-MDCC [1]),binding result (Pf-SSB-MDCC [2]),binding result (Pf-SSB)
B1,binds,,
TTTTTTTTTTTTTTTTTTTTTTTTTTTTTTTTTTT (ssDNA) [(dT)35],,binds,binds
